From the supplement of paper PMC9112550, “Optimization of the antimicrobial peptide Bac7 by deep mutational scanning” (BMC Biology, 2022)

Tested on: Escherichia coli TOP10
Experiment: shrunken log2 fold change of peptide-encoding DNA abundance (4.5 h post-induction vs induction); higher = less antimicrobial activity (less host growth inhibition)
Conditions: time post-induction: 4.5 h; library: site-saturation at positions 5, 18, 19, 20
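Note: peptides expressed intracellularly from a pBAD plasmid library in pooled LB shake-flask culture, induced with 0.3% L-arabinose, DNA abundance read by NGS, three biological replicates, DESeq2 with apeglm shrinkage.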

| Sequence | shrunken log2 fold change |
| --- | --- |
| RRIRYRPPRLPRPRPRPLDIPRP | -1.69 |
| RRIRYRPPRLPRPRPRPLDPPRP | -0.307 |
| RRIRYRPPRLPRPRPRPLGFPRP | -0.662 |
| RRIRYRPPRLPRPRPRPLGPPRP | 0.157 |
| RRIRYRPPRLPRPRPRPLICPRP | -0.255 |
| RRIRYRPPRLPRPRPRPLINPRP | -0.279 |
| RRIRYRPPRLPRPRPRPLIWPRP | -0.256 |
| RRIRYRPPRLPRPRPRPLKWPRP | -0.258 |
| RRIRYRPPRLPRPRPRPLMRPRP | -0.0447 |
| RRIRYRPPRLPRPRPRPLNYPRP | -0.0845 |
| RRIRYRPPRLPRPRPRPLPPPRP | 0.0954 |
| RRIRYRPPRLPRPRPRPLPSPRP | -0.14 |
| RRIRYRPPRLPRPRPRPLQEPRP | -0.218 |
| RRIRYRPPRLPRPRPRPLRFPRP | -0.28 |
| RRIRYRPPRLPRPRPRPLRLPRP | 0.077 |
| RRIRYRPPRLPRPRPRPLSQPRP | 0.0967 |
| RRIRYRPPRLPRPRPRPLVTPRP | -0.616 |
| RRIRYRPPRLPRPRPRPLWKPRP | -0.0695 |
| RRIRYRPPRLPRPRPRPLWTPRP | -0.563 |
| RRIRYRPPRLPRPRPRPLYFPRP | -1.15 |
| RRIRYRPPRLPRPRPRPMALPRP | -0.142 |
| RRIRYRPPRLPRPRPRPMCSPRP | -0.116 |
| RRIRYRPPRLPRPRPRPMGIPRP | 0.00902 |
| RRIRYRPPRLPRPRPRPMHDPRP | -0.598 |
| RRIRYRPPRLPRPRPRPMIDPRP | -0.00999 |

| Sequence | shrunken log2 fold change |
| --- | --- |
| RRIRYRPPRLPRPRPRPMKEPRP | -0.00804 |
| RRIRYRPPRLPRPRPRPMKYPRP | -0.00968 |
| RRIRYRPPRLPRPRPRPMMFPRP | -0.091 |
| RRIRYRPPRLPRPRPRPMNAPRP | -0.00745 |
| RRIRYRPPRLPRPRPRPMNHPRP | -0.262 |
| RRIRYRPPRLPRPRPRPMQPPRP | -0.0124 |
| RRIRYRPPRLPRPRPRPMRLPRP | -0.039 |
| RRIRYRPPRLPRPRPRPMRWPRP | 0.448 |
| RRIRYRPPRLPRPRPRPMSPPRP | -0.0952 |
| RRIRYRPPRLPRPRPRPMTDPRP | -0.0354 |
| RRIRYRPPRLPRPRPRPMVEPRP | -0.201 |
| RRIRYRPPRLPRPRPRPMWDPRP | 0.0162 |
| RRIRYRPPRLPRPRPRPMYQPRP | -0.124 |
| RRIRYRPPRLPRPRPRPNAAPRP | 0.216 |
| RRIRYRPPRLPRPRPRPNADPRP | -0.0823 |
| RRIRYRPPRLPRPRPRPNALPRP | -0.236 |
| RRIRYRPPRLPRPRPRPNATPRP | -0.222 |
| RRIRYRPPRLPRPRPRPNAVPRP | -0.00911 |
| RRIRYRPPRLPRPRPRPNAYPRP | -0.212 |
| RRIRYRPPRLPRPRPRPNCCPRP | -0.518 |
| RRIRYRPPRLPRPRPRPNCPPRP | -0.272 |
| RRIRYRPPRLPRPRPRPNDFPRP | -0.0506 |
| RRIRYRPPRLPRPRPRPNEQPRP | 0.0039 |
| RRIRYRPPRLPRPRPRPNERPRP | -0.0497 |
| RRIRYRPPRLPRPRPRPNEVPRP | -0.00663 |

| Sequence | shrunken log2 fold change |
| --- | --- |
| RRIRYRPPRLPRPRPRPNFEPRP | -0.242 |
| RRIRYRPPRLPRPRPRPNGHPRP | -0.24 |
| RRIRYRPPRLPRPRPRPNGNPRP | -0.561 |
| RRIRYRPPRLPRPRPRPNHGPRP | -0.0102 |
| RRIRYRPPRLPRPRPRPNKAPRP | -0.0417 |
| RRIRYRPPRLPRPRPRPNLRPRP | -0.341 |
| RRIRYRPPRLPRPRPRPNLTPRP | -0.372 |
| RRIRYRPPRLPRPRPRPNNMPRP | -0.633 |
| RRIRYRPPRLPRPRPRPNNVPRP | -0.323 |
| RRIRYRPPRLPRPRPRPNSGPRP | -0.01 |
| RRIRYRPPRLPRPRPRPNSRPRP | -0.156 |
| RRIRYRPPRLPRPRPRPNTCPRP | -0.155 |
| RRIRYRPPRLPRPRPRPNVLPRP | -0.554 |
| RRIRYRPPRLPRPRPRPNVVPRP | -0.274 |
| RRIRYRPPRLPRPRPRPNWAPRP | -0.267 |
| RRIRYRPPRLPRPRPRPNWCPRP | 0.01 |
| RRIRYRPPRLPRPRPRPNYDPRP | -0.746 |
| RRIRYRPPRLPRPRPRPNYYPRP | -1.16 |
| RRIRYRPPRLPRPRPRPPAAPRP | 0.454 |
| RRIRYRPPRLPRPRPRPPALPRP | -0.1 |
| RRIRYRPPRLPRPRPRPPAYPRP | -0.767 |
| RRIRYRPPRLPRPRPRPPDRPRP | 0.118 |
| RRIRYRPPRLPRPRPRPPFMPRP | -0.422 |
| RRIRYRPPRLPRPRPRPPFTPRP | -0.244 |
| RRIRYRPPRLPRPRPRPPHKPRP | -0.549 |

| Sequence | shrunken log2 fold change |
| --- | --- |
| RRIRYRPPRLPRPRPRPPKMPRP | 0.28 |
| RRIRYRPPRLPRPRPRPPKSPRP | -0.0324 |
| RRIRYRPPRLPRPRPRPPNEPRP | -0.106 |
| RRIRYRPPRLPRPRPRPPNYPRP | -0.523 |
| RRIRYRPPRLPRPRPRPPPHPRP | 0.737 |
| RRIRYRPPRLPRPRPRPPQLPRP | -0.371 |
| RRIRYRPPRLPRPRPRPPQMPRP | 0.0297 |
| RRIRYRPPRLPRPRPRPPQQPRP | 0.0729 |
| RRIRYRPPRLPRPRPRPPQTPRP | -0.314 |
| RRIRYRPPRLPRPRPRPPRGPRP | 0.284 |
| RRIRYRPPRLPRPRPRPPVCPRP | 0.065 |
| RRIRYRPPRLPRPRPRPQADPRP | -0.323 |
| RRIRYRPPRLPRPRPRPQAHPRP | -0.149 |
| RRIRYRPPRLPRPRPRPQASPRP | -0.0259 |
| RRIRYRPPRLPRPRPRPQCTPRP | -0.292 |
| RRIRYRPPRLPRPRPRPQDRPRP | -0.00674 |
| RRIRYRPPRLPRPRPRPQDTPRP | -0.547 |
| RRIRYRPPRLPRPRPRPQFMPRP | -0.074 |
| RRIRYRPPRLPRPRPRPQGTPRP | 0.034 |
| RRIRYRPPRLPRPRPRPQGWPRP | 0.031 |
| RRIRYRPPRLPRPRPRPQHNPRP | -1.13 |
| RRIRYRPPRLPRPRPRPQHWPRP | 0.0376 |
| RRIRYRPPRLPRPRPRPQHYPRP | -0.466 |
| RRIRYRPPRLPRPRPRPQKKPRP | 0.0261 |
| RRIRYRPPRLPRPRPRPQKWPRP | -0.16 |

| Sequence | shrunken log2 fold change |
| --- | --- |
| RRIRYRPPRLPRPRPRPQLYPRP | -0.206 |
| RRIRYRPPRLPRPRPRPQNQPRP | -0.562 |
| RRIRYRPPRLPRPRPRPQQKPRP | 0.0376 |
| RRIRYRPPRLPRPRPRPQRTPRP | -0.335 |
| RRIRYRPPRLPRPRPRPQSEPRP | -0.37 |
| RRIRYRPPRLPRPRPRPQSLPRP | -0.0376 |
| RRIRYRPPRLPRPRPRPQTMPRP | -0.23 |
| RRIRYRPPRLPRPRPRPQWLPRP | -0.0323 |
| RRIRYRPPRLPRPRPRPQWPPRP | -0.533 |
| RRIRYRPPRLPRPRPRPQWRPRP | 0.0697 |
| RRIRYRPPRLPRPRPRPRANPRP | -0.109 |
| RRIRYRPPRLPRPRPRPRDGPRP | -0.0431 |
| RRIRYRPPRLPRPRPRPRDLPRP | -0.372 |
| RRIRYRPPRLPRPRPRPRDQPRP | -0.0852 |
| RRIRYRPPRLPRPRPRPRDRPRP | -0.116 |
| RRIRYRPPRLPRPRPRPREFPRP | 0.163 |
| RRIRYRPPRLPRPRPRPREIPRP | -0.442 |
| RRIRYRPPRLPRPRPRPRGIPRP | -0.0542 |
| RRIRYRPPRLPRPRPRPRGKPRP | 0.158 |
| RRIRYRPPRLPRPRPRPRHRPRP | 0.0433 |
| RRIRYRPPRLPRPRPRPRIKPRP | -0.502 |
| RRIRYRPPRLPRPRPRPRILPRP | -0.276 |
| RRIRYRPPRLPRPRPRPRKGPRP | -0.013 |
| RRIRYRPPRLPRPRPRPRLDPRP | -0.176 |
| RRIRYRPPRLPRPRPRPRMAPRP | 0.0395 |

| Sequence | shrunken log2 fold change |
| --- | --- |
| RRIRYRPPRLPRPRPRPRNRPRP | -0.0543 |
| RRIRYRPPRLPRPRPRPRPRPRP | 0.463 |
| RRIRYRPPRLPRPRPRPRRLPRP | -0.385 |
| RRIRYRPPRLPRPRPRPRSDPRP | -0.113 |
| RRIRYRPPRLPRPRPRPRSMPRP | -0.622 |
| RRIRYRPPRLPRPRPRPRSYPRP | -0.879 |
| RRIRYRPPRLPRPRPRPRVLPRP | -0.322 |
| RRIRYRPPRLPRPRPRPRWIPRP | -0.553 |
| RRIRYRPPRLPRPRPRPRWWPRP | 0.189 |
| RRIRYRPPRLPRPRPRPRYSPRP | -1.43 |
| RRIRYRPPRLPRPRPRPSAFPRP | -0.607 |
| RRIRYRPPRLPRPRPRPSAWPRP | 0.199 |
| RRIRYRPPRLPRPRPRPSDEPRP | -0.0199 |
| RRIRYRPPRLPRPRPRPSDKPRP | -0.194 |
| RRIRYRPPRLPRPRPRPSECPRP | -0.347 |
| RRIRYRPPRLPRPRPRPSEFPRP | -0.218 |
| RRIRYRPPRLPRPRPRPSFKPRP | -0.806 |
| RRIRYRPPRLPRPRPRPSFYPRP | -1.06 |
| RRIRYRPPRLPRPRPRPSKCPRP | -0.00419 |
| RRIRYRPPRLPRPRPRPSLEPRP | -0.0996 |
| RRIRYRPPRLPRPRPRPSLKPRP | -0.316 |
| RRIRYRPPRLPRPRPRPSMHPRP | -0.601 |
| RRIRYRPPRLPRPRPRPSMPPRP | -1.69 |
| RRIRYRPPRLPRPRPRPSNNPRP | -1.42 |
| RRIRYRPPRLPRPRPRPSPAPRP | 0.156 |
